Consider two molecules from PMC9549148, “Validation of the binding stoichiometry between HCN channels and their neuronal regulator TRIP8b by single molecule measurements” (Frontiers in Physiology, 2022).

In general, stoichiometry N refers to a count of units in the complex or per binding partner.

Data set [1] deals with rabbit HCN4 carrying an internal deletion (from residues 783 to 1064) (rabbit) (UniProt Q9TV66). The data set is described as follows: mass photometry; Refeyn OneMP; SEC peak fractions of the co-purified HCN4 - EGFP-TRIP8b complex in LMNG-CHS, 1 μL at 200 nM added to 10 μL buffer at room temperature, 60 s recording; no cAMP.
Data set [2] concerns the molecule itself. In words: mass photometry; Refeyn OneMP; the same co-purified HCN4 - EGFP-TRIP8b complex with 2 mM cAMP added prior to mass photometry.

In data set [1], “EGFP-tagged TRIP8b (1a), full-length mouse TRIP8b (splice variant 1a4) (from UniProt Q8C437 1-567) (natural protein)” displayed a stoichiometry N (TRIP8b per tetrameric HCN4) of 4.

B1: rabbit HCN4 carrying an internal deletion (from residues 783 to 1064) (natural protein, UniProt Q9TV66 1-1175, looked up)
chain: MDKLPPSMRKRLYSLPQQVGAKAWIMDEEEDAEEEGAGGRQDPRRRSIRLRPLPSPSPSPSAAAAAAGGAESRGAALGGAADGEGPARGAAKSSTNGDCRRFRGSLASLGSRGGGGGGGSTGGGSHGHLHDSAEERRLIAEGDASPGEDRTPPGLAAEPERPGAPAPPAASPPQVPSSCGEQRPADAAVKVEGGAAAGDQILPEAEARLGQAGFMQRQFGAMLQPGVNKFSLRMFGSQKAVEREQERVKSAGFWIIHPYSDFRFYWDLTMLLLMVGNLIIIPVGITFFKDENTTPWIVFNVVSDTFFLIDLVLNFRTGIVVEDNTDIILDPRRIKMKYLKSWFVVDFVSSIPVDYIFLIVETRIDSEVYKTARALRIVRFTKILSLLRLLRLSRLIRYIHQWEEIFHMTYDLASAVVRIVNLIGMMLLLCHWDGCLQFLVPMLQDFPDDCWVSLNNMVNNSWGKQYSYALFKAMSHMLCIGYGRQAPMGMSDVWLTMLSMIVGATCYAMFIGHATALIQSLDSSRRQYQEKYKQVEQYMSFHKLPPDTRQRIHDYYEHRYQGKMFDEESILGELSEPLREEIINFNCRKLVASMPLFANADPNFVTSMLTKLRFEVFQPGDYIIREGTIGKKMYFIQHGVVSVLTKGNKETKLADGSYFGEICLLTRGRRTASVRADTYCRLYSLSVDNFNEVLEEYPMMRRAFETVALDRLDRIGKKNSILLHKVQHDLSSGVSNYQENAIVQRIVQHDREMAHCARRAQATTPVAPAIWTPLIQAPLQAAQDLKLISASQPALPQDGAQTLRRASPHSSSGESVAALPPFPRAPGRPPGAGPGQHVTLTLPRKASSGSLPPPLSLFGPRAAPAGGPRLTAAPQREPGAKSEPVRSKLPSNL
notes: the extreme C-terminal SNL tripeptide is preserved; expected MW of the monomer 98.4 kDa; Cloned into the pCI vector; no tag is stated for HCN4; also called HCN4ΔC; modified HCN4 channels; source: HEK293-F, transiently co-transfected with TRIP8b; solubilised in detergent (LMNG-CHS), purified in complex with TRIP8b (Ni2+-NTA, Superose 6 SEC)
With B1, in data set [2], the “stoichiometry N” value was 4.
